The assay addresses T1, ULBP2 α1α2 domain, C-terminal 6×-His (human, UniProt Q9BZM5 29-212).
T1 construct: ULBP2, human, α1α2 domains, UniProtKB Q9BZM5 residues 29-212; monomeric protein; also called wild-type ULBP2; MIC-His ligand; source: Expi293 supernatant, purified (Ni-NTA); not shown: His6, C-terminal, kept
T1 sequence (looked up): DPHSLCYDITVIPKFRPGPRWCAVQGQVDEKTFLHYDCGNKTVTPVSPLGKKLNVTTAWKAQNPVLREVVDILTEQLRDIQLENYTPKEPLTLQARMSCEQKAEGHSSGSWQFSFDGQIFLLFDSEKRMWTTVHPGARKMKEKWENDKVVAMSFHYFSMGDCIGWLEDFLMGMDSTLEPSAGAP
The assay is described as follows: BLI; FortéBio Octet; Fc-wtNKG2D, Fc-iNKG2D.YA or Fc-iNKG2D.AF captured on anti-human IgG Fc capture (AHC) biosensor tips; titration series of monomeric MIC-His ligands or monomeric ULBP2 variants. As to conditions: both partners purified.

B1: Fc-wtNKG2D (Fc fusion, human, UniProt P26718 78-216, looked up)
chain: FLNSLFNQEVQIPLTESYCGPCPKNWICYKNNCYQFFDESKNWYESQASCMSQNASLLKVYSKEDQDLLKLVKSYHWMGLVHIPTNGSWQWEDGSILSPNLLTIIEMQKGDCALYASSFKGYIENCSTPNTYICMQRTV
notes: NKG2D wild-type ectodomain, human, UniProtKB P26718 residues 78-216; NKG2D is fused to the C-terminus of the Fc through a factor Xa site linker Ile-Glu-Gly-Arg (IEGR); also called wild-type NKG2D; source: Expi293 cells, secreted, purified (Protein A, SEC); not shown: Fc (human IgG1), N-terminal, kept
Regarding B1, the binding result is on record as “binds”.

Values taken from publication PMC7283332, “convertibleCARs: A chimeric antigen receptor system for flexible control of activity and antigen targeting” (Communications Biology, 2020).
